Data set [1] relates to HeLa Kyoto. As to the kind of experiment: thermal stability score vs G1/S (z-score of summed log2 fold changes over temperatures); higher = more thermally stable than in G1/S.
In data set [2] the test system is HeLa Kyoto. As to the kind of experiment: melting temperature (median over replicates), in situ; higher = more thermally stable.
Data set [3] relates to HeLa Kyoto. Put plainly: solubility in G1/S (NP-40 vs SDS abundance) (log2 ratio); higher = more soluble. The settings on record: cell cycle stage: G1/S.
In data set [4] the test system is HeLa Kyoto. Put plainly: solubility change mitosis vs G1/S (difference of NP-40 vs SDS log2 ratios) (log2 ratio difference); higher = more soluble in mitosis.
The mark [5] stands for this setting: cell cycle stage: early G1 (4.5 h after nocodazole release).
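Throughout, for melting temperature (median over replicates), in situ: HeLa Kyoto cells synchronized by double thymidine or nocodazole block, proteins quantified by TMT10plex mass spectrometry, three independent biological replicates.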
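Throughout, for solubility change mitosis vs G1/S (difference of NP-40 vs SDS log2 ratios): synchronized HeLa Kyoto cells (double thymidine block for G1/S, nocodazole release for mitosis), protein amounts in NP-40 versus SDS lysates quantified by mass spectrometry, three biological replicates.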
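Throughout, for solubility in G1/S (NP-40 vs SDS abundance): HeLa Kyoto cells arrested at G1/S by double thymidine block, proteins quantified by TMT10plex mass spectrometry in mild NP-40 versus SDS extracts, three biological replicates.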
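Throughout, for thermal stability score vs G1/S (z-score of summed log2 fold changes over temperatures): synchronized HeLa Kyoto cells, proteins quantified by TMT10plex mass spectrometry, three biological replicates, mitosis taken 0.5 h after nocodazole release, G1/S directly after double thymidine block.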

Sequence of SIRT5 (chain, as listed by the source): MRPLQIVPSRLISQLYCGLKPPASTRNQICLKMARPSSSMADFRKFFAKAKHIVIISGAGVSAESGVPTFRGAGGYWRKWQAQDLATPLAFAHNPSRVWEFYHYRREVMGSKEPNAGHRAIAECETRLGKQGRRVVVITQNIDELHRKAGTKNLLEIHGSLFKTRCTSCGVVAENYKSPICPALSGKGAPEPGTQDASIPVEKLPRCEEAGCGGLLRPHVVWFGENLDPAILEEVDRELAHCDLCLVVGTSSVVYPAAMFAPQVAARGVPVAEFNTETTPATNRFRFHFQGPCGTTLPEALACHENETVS

“MTMPVNGAHKDADLWSSHDKMLAQPLKDSDVEVYNIIKKESNRQRVGLELIASENFASRAVLEALGSCLNNKYSEGYPGQRYYGGTEFIDELETLCQKRALQAYKLDPQCWGVNVQPYSGSPANFAVYTALVEPHGRIMGLDLPDGGHLTHGFMTDKKKISATSIFFESMPYKVNPDTGYINYDQLEENARLFHPKLIIAGTSCYSRNLEYARLRKIADENGAYLMADMAHISGLVAAGVVPSPFEHCHVVTTTTHKTLRGCRAGMIFYRKGVKSVDPKTGKEILYNLESLINSAVFPGLQGGPHNHAIAGVAVALKQAMTLEFKVYQHQVVANCRALSEALTELGYKIVTGGSDNHLILVDLRSKGTDGGRAEKVLEACSIACNKNTCPGDRSALRPSGLRLGTPALTSRGLLEKDFQKVAHFIHRGIELTLQIQSDTGVRATLKEFKERLAGDKYQAAVQALREEVESFASLFPLPGLPDF [SHMT1]”: the thermal stability score is -2.14 in the data set with HeLa Kyoto [1] (setting [5]) and -2.12 with HeLa Kyoto [1] (cell cycle stage: mitosis). Moreover, the melting temperature in the data set on HeLa Kyoto [2] (cell cycle stage: G1/S) and in the data set on HeLa Kyoto [2] (cell cycle stage: mitosis) was 58.2 °C throughout. Besides, in the data set on HeLa Kyoto [3], the “solubility in G1/S (log2)” value came to 0.366. Further, in the data set with HeLa Kyoto [4], the “solubility change mitosis (log2)” value is -0.0876.
Regarding “MAHSKTRTNDGKITYPPGVKEISDKISKEEMVRRLKMVVKTFMDMDQDSEEEKELYLNLALHLASDFFLKHPDKDVRLLVACCLADIFRIYAPEAPYTSPDKLKDIFMFITRQLKGLEDTKSPQFNRYFYLLENIAWVKSYNICFELEDSNEIFTQLYRTLFSVINNGHNQKVHMHMVDLMSSIICEGDTVSQELLDTVLVNLVPAHKNLNKQAYDLAKALLKRTAQAIEPYITNFFNQVLMLGKTSISDLSEHVFDLILELYNIDSHLLLSVLPQLEFKLKSNDNEERLQVVKLLAKMFGAKDSELASQNKPLWQCYLGRFNDIHVPIRLECVKFASHCLMNHPDLAKDLTEYLKVRSHDPEEAIRHDVIVSIVTAAKKDILLVNDHLLNFVRERTLDKRWRVRKEAMMGLAQIYKKYALQSAAGKDAAKQIAWIKDKLLHIYYQNSIDDRLLVERIFAQYMVPHNLETTERMKCLYYLYATLDLNAVKALNEMWKCQNLLRHQVKDLLDLIKQPKTDASVKAIFSKVMVITRNLPDPGKAQDFMKKFTQVLEDDEKIRKQLEVLVSPTCSCKQAEGCVREITKKLGNPKQPTNPFLEMIKFLLERIAPVHIDTESISALIKQVNKSIDGTADDEDEGVPTDQAIRAGLELLKVLSFTHPISFHSAETFESLLACLKMDDEKVAEAALQIFKNTGSKIEEDFPHIRSALLPVLHHKSKKGPPRQAKYAIHCIHAIFSSKETQFAQIFEPLHKSLDPSNLEHLITPLVTIGHIALLAPDQFAAPLKSLVATFIVKDLLMNDRLPGKKTTKLWVPDEEVSPETMVKIQAIKMMVRWLLGMKNNHSKSGTSTLRLLTTILHSDGDLTEQGKISKPDMSRLRLAAGSAIVKLAQEPCYHEIITLEQYQLCALAINDECYQVRQVFAQKLHKGLSRLRLPLEYMAICALCAKDPVKERRAHARQCLVKNINVRREYLKQHAAVSEKLLSLLPEYVVPYTIHLLAHDPDYVKVQDIEQLKDVKECLWFVLEILMAKNENNSHAFIRKMVENIKQTKDAQGPDDAKMNEKLYTVCDVAMNIIMSKSTTYSLESPKDPVLPARFFTQPDKNFSNTKNYLPPEMKSFFTPGKPKTTNVLGAVNKPLSSAGKQSQTKSSRMETVSNASSSSNPSSPGRIKGRLDSSEMDHSENEDYTMSSPLPGKKSDKRDDSDLVRSELEKPRGRKKTPVTEQEEKLGMDDLTKLVQEQKPKGSQRSRKRGHTASESDEQQWPEEKRLKEDILENEDEQNSPPKKGKRGRPPKPLGGGTPKEEPTMKTSKKGSKKKSGPPAPEEEEEEERQSGNTEQKSKSKQHRVSRRAQQRAESPESSAIESTQSTPQKGRGRPSKTPSPSQPKKNVRVGRSKQAATKENDSSEEVDVFQGSSPVDDIPQEETEEEEVSTVNVRRRSAKRERR [PDS5B]”, the thermal stability score is -0.564 in the data set on HeLa Kyoto [1] (setting [5]) and 0.534 with HeLa Kyoto [1] (cell cycle stage: mitosis). Besides, the melting temperature in the data set on HeLa Kyoto [2] (cell cycle stage: G1/S) turned out to be 49.2 °C; in the data set with HeLa Kyoto [2] (cell cycle stage: mitosis), 49.4 °C. Further, the “solubility in G1/S (log2)” value in the data set with HeLa Kyoto [3] was -0.302. Further, the “solubility change mitosis (log2)” value with HeLa Kyoto [4] was found to be 0.216.
With “MEPAMEPETLEARINRATNPLNKELDWASINGFCEQLNEDFEGPPLATRLLAHKIQSPQEWEAIQALTVLETCMKSCGKRFHDEVGKFRFLNELIKVVSPKYLGSRTSEKVKNKILELLYSWTVGLPEEVKIAEAYQMLKKQGIVKSDPKLPDDTTFPLPPPRPKNVIFEDEEKSKMLARLLKSSHPEDLRAANKLIKEMVQEDQKRMEKISKRVNAIEEVNNNVKLLTEMVMSHSQGGAAAGSSEDLMKELYQRCERMRPTLFRLASDTEDNDEALAEILQANDNLTQVINLYKQLVRGEEVNGDATAGSIPGSTSALLDLSGLDLPPAGTTYPAMPTRPGEQASPEQPSASVSLLDDELMSLGLSDPTPPSGPSLDGTGWNSFQSSDATEPPAPALAQAPSMESRPPAQTSLPASSGLDDLDLLGKTLLQQSLPPESQQVRWEKQQPTPRLTLRDLQNKSSSCSSPSSSATSLLHTVSPEPPRPPQQPVPTELSLASITVPLESIKPSNILPVTVYDQHGFRILFHFARDPLPGRSDVLVVVVSMLSTAPQPIRNIVFQSAVPKVMKVKLQPPSGTELPAFNPIVHPSAITQVLLLANPQKEKVRLRYKLTFTMGDQTYNEMGDVDQFPPPETWGSL [GGA1]”, the thermal stability score in the data set on HeLa Kyoto [1] (setting [5]) is -0.271; with HeLa Kyoto [1] (cell cycle stage: mitosis), -0.0298. Also, the melting temperature with HeLa Kyoto [2] (cell cycle stage: G1/S) and in the data set on HeLa Kyoto [2] (cell cycle stage: mitosis) was 51.6 °C in each case. In addition, in the data set on HeLa Kyoto [3], the “solubility in G1/S (log2)” value turned out to be 0.556. Further, in the data set with HeLa Kyoto [4], the “solubility change mitosis (log2)” value was -0.28.
For SIRT5, the thermal stability score in the data set with HeLa Kyoto [1] (setting [5]) was -0.174; with HeLa Kyoto [1] (cell cycle stage: mitosis), 0.987. For the same substance, the melting temperature with HeLa Kyoto [2] (cell cycle stage: G1/S) and in the data set with HeLa Kyoto [2] (cell cycle stage: mitosis) was 50.9 °C in each case. Also, the “solubility in G1/S (log2)” value in the data set on HeLa Kyoto [3] is 0.419. For the same substance, in the data set on HeLa Kyoto [4], the “solubility change mitosis (log2)” value is -0.233.
As to “MSVRVARVAWVRGLGASYRRGASSFPVPPPGAQGVAELLRDATGAEEEAPWAATERRMPGQCSVLLFPGQGSQVVGMGRGLLNYPRVRELYAAARRVLGYDLLELSLHGPQETLDRTVHCQPAIFVASLAAVEKLHHLQPSVIENCVAAAGFSVGEFAALVFAGAMEFAEGLYAVKIRAEAMQEASEAVPSGMLSVLGQPQSKFNFACLEAREHCKSLGIENPVCEVSNYLFPDCRVISGHQEALRFLQKNSSKFHFRRTRMLPVSGAFHTRLMEPAVEPLTQALKAVDIKKPLVSVYSNVHAHRYRHPGHIHKLLAQQLVSPVKWEQTMHAIYERKKGRGFPQTFEVGPGRQLGAILKSCNMQAWKSYSAVDVLQTLEHVDLDPQEPPR [MCAT]”, the results for the thermal stability score in the data set on HeLa Kyoto [1] (setting [5]) and with HeLa Kyoto [1] (cell cycle stage: mitosis) were -1.29 and -2.74, respectively. In addition, the melting temperature in the data set on HeLa Kyoto [2] (cell cycle stage: G1/S) is 53.7 °C; in the data set on HeLa Kyoto [2] (cell cycle stage: mitosis), 54.9 °C. Further, the “solubility in G1/S (log2)” value with HeLa Kyoto [3] stood at 0.3. Further, in the data set with HeLa Kyoto [4], the “solubility change mitosis (log2)” value is -0.00154.

For the origin of these results see the supplement of paper PMC5998384.
